Substitutions are numbered along the chain they refer to. Numbers in names are those of the source.
B1: FIXa-R318Y/R338E/T412A (protein)
chain 1: YNSGKLEEFVQGNLERECMEEKCSFEEAREVFENTERTTEFWKQYVDGDQCESNPCLNGGSCKDDINSYECWCPFGFEGKNCELDVTCNIKNGRCEQFCKNSADNKVVCSCTEGYRLAENQKSCEPAVPFPCGRVSVSQTSKLTR
chain 2: VVGGEDAKPGQFPWQVVLNGKVDAFCGGSIVNEKWIVTAAHCVETGVKITVVAGEHNIEETEHTEQKRNVIRIIPHHNYNAAINKYNHDIALLELDEPLVLNSYVTPICIADKEYTNIFLKFGSGYVSGWGRVFHKGYSALVLQYLRVPLVDRATCLESTKFTIYNNMFCAGFHEGGRDSCQGDSGGPHVTEVEGTSFLTGIISWGEECAMKGKYGIYTKVSRYVNWIKEKAKLT
B2: FIXa-R318Y/R338E/E410S (protein)
chain 1: B1 chain 1
chain 2: B1 chain 2 with E230S, A232T
B3: FIXa-K247N/N249S/R318Y/R338E/R403E (protein)
chain 1: B1 chain 1
chain 2: B1 chain 2 with K67N, N69S, R223E, A232T
B4: FIXa-K228N/R338E/R403E (protein)
chain 1: B1 chain 1
chain 2: B1 chain 2 with K48N, Y138R, R223E, A232T
B5: FIXa-R318Y/R338E/R403E (protein)
chain 1: B1 chain 1
chain 2: B1 chain 2 with R223E, A232T
B6: FIXa-D203N/F205T/R338E (protein)
chain 1: B1 chain 1
chain 2: B1 chain 2 with D23N, F25T, Y138R, A232T
B7: FIXa-D104N/K106S/R318Y/R338E/E410N (protein)
chain 1: B1 chain 1 with D104N, K106S
chain 2: B1 chain 2 with E230N, A232T
B8: FIXa-D104N/K106S/Y155F/R318Y/R338E/R403E/E410N (protein)
chain 1: B1 chain 1 with D104N, K106S
chain 2: B1 chain 2 with R223E, E230N, A232T
B9: FIXa-Y155F/R318Y/R338E/E410N (protein)
chain 1: B1 chain 1
chain 2: B1 chain 2 with E230N, A232T
B10: FIXa-K228N/R318Y/R338E/R403E/E410N (protein)
chain 1: B1 chain 1
chain 2: B1 chain 2 with K48N, R223E, E230N, A232T
B11: FIXa-D104N/K106S/I251S/R318Y/R338E/E410N (protein)
chain 1: B1 chain 1 with D104N, K106S
chain 2: B1 chain 2 with I71S, E230N, A232T
B12: FIXa-A103N/N105S/Y155F/R318Y/R338E/R403E/E410N (protein)
chain 1: B1 chain 1 with A103N, N105S
chain 2: B1 chain 2 with R223E, E230N, A232T
B13: FIXa-D203N/F205T/R338A (protein)
chain 1: B1 chain 1
chain 2: B1 chain 2 with D23N, F25T, Y138R, E158A, A232T
B14: FIXa-A103N/N105S/R318Y/R338E/R403E/E410N (protein)
chain 1: B1 chain 1 with A103N, N105S
chain 2: B1 chain 2 with R223E, E230N, A232T
B15: FIXa-R318Y/R403E/E410N (protein)
chain 1: B1 chain 1
chain 2: B1 chain 2 with E158R, R223E, E230N, A232T
B16: FIXa-Y155F/K247N/N249S/R318Y/R338E/R403E (protein)
chain 1: B1 chain 1
chain 2: B1 chain 2 with K67N, N69S, R223E, A232T
B17: FIXa-K247N/N249S/R318Y/R403E/E410N (protein)
chain 1: B1 chain 1
chain 2: B1 chain 2 with K67N, N69S, E158R, R223E, E230N, A232T
B18: FIXa-D203N/F205T/R318Y/E410N (protein)
chain 1: B1 chain 1
chain 2: B1 chain 2 with D23N, F25T, E158R, E230N, A232T
B19: FIXa-R318Y/R338E/R403E/T412A (protein)
chain 1: B1 chain 1
chain 2: B1 chain 2 with R223E
B20: FIXa-Y155F/K247N/N249S/R318Y/R403E/E410N (protein)
chain 1: B1 chain 1
chain 2: B1 chain 2 with K67N, N69S, E158R, R223E, E230N, A232T
B21: FIXa-K228N/R318Y/E410N (protein)
chain 1: B1 chain 1
chain 2: B1 chain 2 with K48N, E158R, E230N, A232T
B22: FIXa-D104N/K106S/R318Y/R338E/R403E/E410N (protein)
chain 1: B1 chain 1 with D104N, K106S
chain 2: B1 chain 2 with R223E, E230N, A232T
B23: FIXa-Y155F/K228N/K247N/N249S (protein)
chain 1: B1 chain 1
chain 2: B1 chain 2 with K48N, K67N, N69S, Y138R, E158R, A232T
B24: FIXa-D203N/F205T/R318Y (protein)
chain 1: B1 chain 1
chain 2: B1 chain 2 with D23N, F25T, E158R, A232T
B25: FIXa-Y155F/R318Y/R338E/R403E (protein)
chain 1: B1 chain 1
chain 2: B1 chain 2 with R223E, A232T
B26: FIXa-D104N/K106S/Y155F/K228N/K247N/N249S (protein)
chain 1: B1 chain 1 with D104N, K106S
chain 2: B1 chain 2 with K48N, K67N, N69S, Y138R, E158R, A232T
B27: FIXa-Y155F/R318Y/R338E/R403E/E410N (protein)
chain 1: B1 chain 1
chain 2: B1 chain 2 with R223E, E230N, A232T
B28: FIXa-D203N/F205T/R338E/R403E (protein)
chain 1: B1 chain 1
chain 2: B1 chain 2 with D23N, F25T, Y138R, R223E, A232T
B29: FIXa-D104N/K106S/K228N/K247N/N249S (protein)
chain 1: B1 chain 1 with D104N, K106S
chain 2: B1 chain 2 with K48N, K67N, N69S, Y138R, E158R, A232T
B30: FIXa-D203N/F205T/K228N (protein)
chain 1: B1 chain 1
chain 2: B1 chain 2 with D23N, F25T, K48N, Y138R, E158R, A232T
B31: FIXa-D203N/F205T/E410N (protein)
chain 1: B1 chain 1
chain 2: B1 chain 2 with D23N, F25T, Y138R, E158R, E230N, A232T
B32: FIXa-R338E/R403E/E410N (protein)
chain 1: B1 chain 1
chain 2: B1 chain 2 with Y138R, R223E, E230N, A232T

Key:
[1] = target: plasma purified human AT-III (antithrombin III), in complex with full-length unfractionated heparin (AT-III/UFH)
[2] = target: antithrombin III (plasma purified human AT-III), in complex with unfractionated heparin

Sequence of Factor X (FX), P00742 (P00742 whole entry, looked up): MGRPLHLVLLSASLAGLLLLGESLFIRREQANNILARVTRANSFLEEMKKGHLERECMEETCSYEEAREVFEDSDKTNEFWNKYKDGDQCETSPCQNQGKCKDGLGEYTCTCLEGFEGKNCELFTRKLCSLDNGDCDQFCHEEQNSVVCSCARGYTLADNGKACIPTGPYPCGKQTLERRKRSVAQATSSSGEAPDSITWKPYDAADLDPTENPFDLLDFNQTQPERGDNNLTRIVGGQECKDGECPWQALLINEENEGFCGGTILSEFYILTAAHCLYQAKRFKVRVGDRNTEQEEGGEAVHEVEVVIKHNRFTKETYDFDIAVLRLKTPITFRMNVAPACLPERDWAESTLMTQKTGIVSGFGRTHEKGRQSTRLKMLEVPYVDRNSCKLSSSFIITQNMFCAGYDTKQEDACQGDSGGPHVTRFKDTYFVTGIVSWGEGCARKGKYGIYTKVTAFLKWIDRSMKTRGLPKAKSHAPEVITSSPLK
Sequence of Factor X, P00742 (P00742 whole entry, looked up): as above

Protein	kcat/KM (Factor X, P00742)	% of WT (kcat/KM) (Factor X, P00742)	KM (Catalytic activity of FIXa variants) (Factor X, P00742)	K0.5 [2]	K0.5-mut/K0.5-wt [2]	kcat/KM (M^-1s^-1), FX activation by FIXa in the Xase complex (Factor X (FX), P00742)	other results
B1							kcat of FX activation by FIXa in the Xase complex (FVIIIa, PC/PS vesicles, Ca2+) (Factor X (FX), P00742): 7 s⁻¹; K0.5-mut/K0.5-wt (against Catalyst Biosciences WT FIXa) [1]: 396
B2							K0.5-mut/K0.5-wt (against Catalyst Biosciences WT FIXa) [1]: 279
B3	2.3e+08 M⁻¹ s⁻¹						KM (Factor X (FX), P00742): 0.0536 µM; kcat of FX activation by FIXa in the Xase complex (FVIIIa, PC/PS vesicles, Ca2+) (Factor X (FX), P00742): 10.5 s⁻¹
B4		105%	0.0592 µM	1680 nM	86.8		kcat/KM for FX activation (Xase assay with FVIIIa, PC/PS vesicles, Ca2+) (Factor X (FX), P00742): 4.8e+07 M⁻¹ s⁻¹
B5	6.2e+07 M⁻¹ s⁻¹	134%	0.0537 µM	> 10000 nM	> 517		kcat/KM for FX activation (Xase assay with FVIIIa, PC/PS vesicles, Ca2+) (Factor X (FX), P00742): 6.5e+07 M⁻¹ s⁻¹
B6	1e+08 M⁻¹ s⁻¹	228%	0.0241 µM	1170 nM	60.5		kcat/KM for FX activation (Xase assay with FVIIIa, PC/PS vesicles, Ca2+) (Factor X (FX), P00742): 1e+08 M⁻¹ s⁻¹
B7			0.0189 µM	6330 nM	327	2.6e+08 M⁻¹ s⁻¹	
B8			0.048 µM			1.8e+08 M⁻¹ s⁻¹	
B9			0.016 µM	1100 nM	56.8	3.7e+08 M⁻¹ s⁻¹	
B10							K0.5-mut/K0.5-wt (against Catalyst Biosciences WT FIXa) [1]: > 517
B11							K0.5-mut/K0.5-wt (against Catalyst Biosciences WT FIXa) [1]: 464
B12			0.0507 µM			1.3e+08 M⁻¹ s⁻¹	
B13	6.2e+07 M⁻¹ s⁻¹	135%	0.0385 µM	423 nM	21.9		kcat/KM for FX activation (Xase assay with FVIIIa, PC/PS vesicles, Ca2+) (Factor X (FX), P00742): 6.2e+07 M⁻¹ s⁻¹
B14			0.0447 µM			1.5e+08 M⁻¹ s⁻¹	
B15			0.0883 µM	7070 nM	366	2.5e+07 M⁻¹ s⁻¹	
B16	9.5e+07 M⁻¹ s⁻¹						KM (Factor X (FX), P00742): 0.0673 µM; kcat of FX activation by FIXa in the Xase complex (FVIIIa, PC/PS vesicles, Ca2+) (Factor X (FX), P00742): 5.7 s⁻¹

Protein	kcat/KM (Factor X, P00742)	% of WT (kcat/KM) (Factor X, P00742)	KM (Catalytic activity of FIXa variants) (Factor X, P00742)	K0.5 [2]	K0.5-mut/K0.5-wt [2]	kcat/KM (M^-1s^-1), FX activation by FIXa in the Xase complex (Factor X (FX), P00742)	other results
B17	2.7e+07 M⁻¹ s⁻¹						KM (Factor X (FX), P00742): 0.111 µM; kcat of FX activation by FIXa in the Xase complex (FVIIIa, PC/PS vesicles, Ca2+) (Factor X (FX), P00742): 2.9 s⁻¹
B18			0.0457 µM			3.9e+07 M⁻¹ s⁻¹	
B19							K0.5-mut/K0.5-wt (against Catalyst Biosciences WT FIXa) [1]: > 517
B20	1e+07 M⁻¹ s⁻¹						KM (Factor X (FX), P00742): 0.125 µM; kcat of FX activation by FIXa in the Xase complex (FVIIIa, PC/PS vesicles, Ca2+) (Factor X (FX), P00742): 1.2 s⁻¹
B21			0.042 µM	475 nM	24.6	1.2e+08 M⁻¹ s⁻¹	
B22			0.0385 µM			1.7e+08 M⁻¹ s⁻¹	
B23							K0.5-mut/K0.5-wt (against Catalyst Biosciences WT FIXa) [1]: 1.4
B24	2e+07 M⁻¹ s⁻¹	44%	0.0475 µM	7230 nM	374		kcat/KM for FX activation (Xase assay with FVIIIa, PC/PS vesicles, Ca2+) (Factor X (FX), P00742): 2e+07 M⁻¹ s⁻¹
B25	8.7e+07 M⁻¹ s⁻¹	189%					
B26							K0.5-mut/K0.5-wt (against Catalyst Biosciences WT FIXa) [1]: 1.6
B27			0.0304 µM			1.9e+08 M⁻¹ s⁻¹	
B28	1.9e+07 M⁻¹ s⁻¹	41%	0.0511 µM	1520 nM	78.6		kcat/KM for FX activation (Xase assay with FVIIIa, PC/PS vesicles, Ca2+) (Factor X (FX), P00742): 1.9e+07 M⁻¹ s⁻¹
B29							K0.5-mut/K0.5-wt (against Catalyst Biosciences WT FIXa) [1]: 2.1
B30	1.4e+07 M⁻¹ s⁻¹	30%	0.0399 µM	822 nM	42.5		kcat/KM for FX activation (Xase assay with FVIIIa, PC/PS vesicles, Ca2+) (Factor X (FX), P00742): 1.4e+07 M⁻¹ s⁻¹
B31	4.2e+07 M⁻¹ s⁻¹	91%	0.0455 µM	377 nM	19.5		kcat/KM for FX activation (Xase assay with FVIIIa, PC/PS vesicles, Ca2+) (Factor X (FX), P00742): 4.2e+07 M⁻¹ s⁻¹
B32	1.9e+08 M⁻¹ s⁻¹	411%	0.0455 µM	2350 nM	122		kcat/KM for FX activation (Xase assay with FVIIIa, PC/PS vesicles, Ca2+) (Factor X (FX), P00742): 7.8e+07 M⁻¹ s⁻¹

Reference: patent US20210230570
